# In publication PMC11020753, “Contribution of amino acids in the active site of dipeptidyl peptidase 4 to the catalytic action of the enzyme” (PLOS ONE, 2024):
# Non-standard residues stand in square brackets, D forms with d. Residues, ends and D or L forms follow the SMILES beside them. Tle = CC(C)(C)[C@H](N)C(=O)O
# Experiments:
# Assay type in all cases: biochemical
# DP4 variant N710Q [1] = biological target: T1, DP4 variant N710Q (Homo sapiens, UniProt P27487, N710Q); experiment: IC50 determination with substrate Gly-Pro-AMC; settings: bounds given in mM, 100 mM HEPES-buffer (pH 7.6), T = 30 °C, substrate Gly-Pro-AMC in the range of Km
# T1 construct: His(6)-37-766 hDP4 containing fractions were concentrated to 1 ml; made in house; host or cells: Pichia pastoris X-33 (vector pPICZα C, secreted)
# Method: (§1) The reactions were performed in 100 mM HEPES buffer, pH 7.6 at 30°C in a total assay volume of 270 μl by using 96-well plates. […] Fluorescence was detected with a […]luor Plus (TECAN) at an excitation wavelength of 380 nm and an emission wavelength of 465 nm.
# DP4 variant R125A [2] = biological target: T2, DP4 variant R125A (Homo sapiens, UniProt P27487, R125A); experiment: IC50 determination with substrate Gly-Pro-AMC; settings: 100 mM HEPES-buffer (pH 7.6), T = 30 °C, substrate Gly-Pro-AMC in the range of Km
# T2 construct: His(6)-37-766 hDP4 containing fractions were concentrated to 1 ml; made in house; host or cells: Pichia pastoris X-33 (vector pPICZα C, secreted)
# Method: as §1
# DP4 variant E206A [3] = biological target: T3, DP4 variant E206A (Homo sapiens, UniProt P27487, E206A); experiment: IC50 determination with substrate Gly-Pro-AMC; settings: bounds given in mM, 100 mM HEPES-buffer (pH 7.6), T = 30 °C, substrate Gly-Pro-AMC in the range of Km
# T3 construct: His(6)-37-766 hDP4 containing fractions were concentrated to 1 ml as described above; His6 (N); made in house; host or cells: Pichia pastoris X-33, vector pPICZα C (secreted)
# Method: as §1
# DP4 variant N710A [4] = biological target: T4, DP4 variant N710A (Homo sapiens, UniProt P27487, N710A); experiment: IC50 determination with substrate Gly-Pro-AMC; settings: 100 mM HEPES-buffer (pH 7.6), T = 30 °C, substrate Gly-Pro-AMC in the range of Km
# T4 construct: His(6)-37-766 hDP4 containing fractions were concentrated to 1 ml; made in house; host or cells: Pichia pastoris X-33 (vector pPICZα C, secreted)
# Method: as §1
# DP4 variant R125K [5] = biological target: T5, DP4 variant R125K (Homo sapiens, UniProt P27487, R125K); experiment: IC50 determination with substrate Gly-Pro-AMC; settings: 100 mM HEPES-buffer (pH 7.6), T = 30 °C, substrate Gly-Pro-AMC in the range of Km
# T5 construct: His(6)-37-766 hDP4 containing fractions were concentrated to 1 ml; made in house; host or cells: Pichia pastoris X-33 (vector pPICZα C, secreted)
# Method: as §1
# wild type DP4 [6] = biological target: T6, wild type DP4 (Homo sapiens, UniProt P27487); experiment: IC50 determination with substrate Gly-Pro-AMC; settings: 100 mM HEPES-buffer (pH 7.6), T = 30 °C, substrate Gly-Pro-AMC in the range of Km
# T6 construct: His(6)-37-766 hDP4 containing fractions were concentrated to 1 ml; made in house; host or cells: Pichia pastoris X-33 (vector pPICZα C, secreted)
# Method: as §1
# DP4 variant N710D [7] = biological target: T7, DP4 variant N710D (Homo sapiens, UniProt P27487, N710D); experiment: IC50 determination with substrate Gly-Pro-AMC; settings: 100 mM HEPES-buffer (pH 7.6), T = 30 °C, substrate Gly-Pro-AMC in the range of Km
# T7 construct: His(6)-37-766 hDP4 containing fractions were concentrated to 1 ml; made in house; host or cells: Pichia pastoris X-33 (vector pPICZα C, secreted)
# Method: as §1
# DP4 variant E205A [8] = biological target: T8, DP4 variant E205A (Homo sapiens, UniProt P27487, E205A); experiment: IC50 determination with substrate Gly-Pro-AMC; settings: 100 mM HEPES-buffer (pH 7.6), T = 30 °C, substrate Gly-Pro-AMC in the range of Km
# T8 construct: His(6)-37-766 hDP4 containing fractions were concentrated to 1 ml as described above; His6 (N); made in house; host or cells: Pichia pastoris X-33, vector pPICZα C (secreted)
# Method: as §1
# DP4 variant N710Q [9] = biological target: T1, DP4 variant N710Q; experiment: Km and kcat determination by LC/MS-MS assay; settings: hydrolysis of peptide hormone, 10 mM Tris-buffer (pH 7.6), T = 30 °C
# Method: (§2) Therefore, DP4 was incubated with different substrate concentrations in 10 mM Tris-buffer pH 7.6 at 30°C. Enzyme concentrations and incubation times were chosen to obtain a linear product formation. After selected time points, samples were taken and the reaction stopped by addition of 19 volumes 0,1% HCOOH. Cleavage products were quantified in the respective samples by LC/MS-MS assay.
# DP4 variant R125A [10] = biological target: T2, DP4 variant R125A; experiment: Km and kcat determination by LC/MS-MS assay; settings: hydrolysis of peptide hormone, 10 mM Tris-buffer (pH 7.6), T = 30 °C
# Method: as §2
# DP4 variant E206A [11] = biological target: T3, DP4 variant E206A; experiment: Km and kcat determination by LC/MS-MS assay; settings: hydrolysis of peptide hormone, 10 mM Tris-buffer (pH 7.6), T = 30 °C
# Method: as §2
# DP4 variant N710A [12] = biological target: T4, DP4 variant N710A; experiment: Km and kcat determination by LC/MS-MS assay; settings: hydrolysis of peptide hormone, 10 mM Tris-buffer (pH 7.6), T = 30 °C
# Method: as §2
# DP4 variant R125K [13] = biological target: T5, DP4 variant R125K; experiment: Km and kcat determination by LC/MS-MS assay; settings: hydrolysis of peptide hormone, 10 mM Tris-buffer (pH 7.6), T = 30 °C
# Method: as §2
# wild type DP4 [14] = biological target: T6, wild type DP4; experiment: Km and kcat determination by LC/MS-MS assay; settings: hydrolysis of peptide hormone, 10 mM Tris-buffer (pH 7.6), T = 30 °C
# Method: as §2
# DP4 variant N710D [15] = biological target: T7, DP4 variant N710D; experiment: Km and kcat determination by LC/MS-MS assay; settings: hydrolysis of peptide hormone, 10 mM Tris-buffer (pH 7.6), T = 30 °C
# Method: as §2
# DP4 variant E205A [16] = biological target: T8, DP4 variant E205A; experiment: Km and kcat determination by LC/MS-MS assay; settings: hydrolysis of peptide hormone, 10 mM Tris-buffer (pH 7.6), T = 30 °C
# Method: as §2
# DP4 variant R125K [17] = biological target: T5, DP4 variant R125K; experiment: Cleavage of peptide hormones by MALDI-TOF mass spectrometry; design: key: +++: hydrolysis is comparable with the data obtained from the wild type enzyme; -: hydrolysis below 0,01% of the wild type enzyme; settings: T = 37 °C, 100 mM Tris-HCl, pH 7.6, substrate concentration 25 μM
# Method: (§3) Enzyme concentration 5 x 10^−9 M, substrate concentration 25 μM, reaction time 1–3 hours, depending on the respective hydrolysis rate. Reactions were stopped by addition of 1 volume DHAP/DAHC-matrix, dissolved in 50% (v/v) acetonitrile, after certain time points. The matrix-sample mixture was placed in a vacuum, which caused the proteins to crystallize together with the matrix. Using the mass spectrometer "LD-TOF System G2025" from Hewlett Packard, the relative amount of substrate and respective product peaks in the samples could be determined. Relative hydrolysis rates were depicted by plotting relative substrate concentration against time.
# wild type DP4 [18] = biological target: T6, wild type DP4; experiment: as above; design: key: +++: hydrolysis is comparable with the data obtained from the wild type enzyme; -: hydrolysis below 0,01% of the wild type enzyme; settings: T = 37 °C, 100 mM Tris-HCl, pH 7.6, substrate concentration 25 μM
# Method: as §3
# DP4 variant N710Q [19] = biological target: T1, DP4 variant N710Q; experiment: as above; settings: T = 37 °C, 100 mM Tris-HCl, pH 7.6, substrate concentration 25 μM
# Method: as §3
# DP4 variant R125A [20] = biological target: T2, DP4 variant R125A; experiment: as above; settings: T = 37 °C, 100 mM Tris-HCl, pH 7.6, substrate concentration 25 μM
# Method: as §3
# DP4 variant E206A [21] = biological target: T3, DP4 variant E206A; experiment: as above; settings: T = 37 °C, 100 mM Tris-HCl, pH 7.6, substrate concentration 25 μM
# Method: as §3
# DP4 variant N710A [22] = biological target: T4, DP4 variant N710A; experiment: as above; settings: T = 37 °C, 100 mM Tris-HCl, pH 7.6, substrate concentration 25 μM
# Method: as §3
# DP4 variant N710D [23] = biological target: T7, DP4 variant N710D; experiment: as above; settings: T = 37 °C, 100 mM Tris-HCl, pH 7.6, substrate concentration 25 μM
# Method: as §3
# DP4 variant E205A [24] = biological target: T8, DP4 variant E205A; experiment: as above; settings: T = 37 °C, 100 mM Tris-HCl, pH 7.6, substrate concentration 25 μM
# Method: as §3
# T2 sequence (P27487 37-766 R125A): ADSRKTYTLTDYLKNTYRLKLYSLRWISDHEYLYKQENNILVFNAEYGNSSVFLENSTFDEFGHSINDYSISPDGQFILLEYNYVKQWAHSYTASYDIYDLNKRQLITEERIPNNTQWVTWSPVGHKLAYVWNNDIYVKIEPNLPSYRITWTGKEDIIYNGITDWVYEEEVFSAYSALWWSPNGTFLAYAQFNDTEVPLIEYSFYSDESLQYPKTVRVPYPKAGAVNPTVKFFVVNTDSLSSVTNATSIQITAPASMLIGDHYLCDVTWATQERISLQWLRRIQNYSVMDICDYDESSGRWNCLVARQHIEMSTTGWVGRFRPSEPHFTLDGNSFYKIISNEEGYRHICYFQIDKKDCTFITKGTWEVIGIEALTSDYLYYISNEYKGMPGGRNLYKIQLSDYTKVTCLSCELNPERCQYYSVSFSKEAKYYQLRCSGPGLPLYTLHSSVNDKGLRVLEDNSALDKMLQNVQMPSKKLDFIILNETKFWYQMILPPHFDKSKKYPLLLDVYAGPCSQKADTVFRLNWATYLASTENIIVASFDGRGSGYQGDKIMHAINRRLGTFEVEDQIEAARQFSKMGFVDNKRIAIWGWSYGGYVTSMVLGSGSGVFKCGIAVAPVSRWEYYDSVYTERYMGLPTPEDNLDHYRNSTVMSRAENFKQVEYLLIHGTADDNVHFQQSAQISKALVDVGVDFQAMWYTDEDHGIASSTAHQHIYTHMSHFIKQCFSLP
# T8 sequence (P27487 37-766 E205A): as the sequence (P27487 37-766 R125A) above, with A89R, E169A counted along it
# T6 sequence (P27487 37-766): as the sequence (P27487 37-766 R125A) above, with A89R counted along it
# T4 sequence (P27487 37-766 N710A): as the sequence (P27487 37-766 R125A) above, with A89R, N674A counted along it
# T5 sequence (P27487 37-766 R125K): as the sequence (P27487 37-766 R125A) above, with A89K counted along it
# T3 sequence (P27487 37-766 E206A): as the sequence (P27487 37-766 R125A) above, with A89R, E170A counted along it
# T1 sequence (P27487 37-766 N710Q): as the sequence (P27487 37-766 R125A) above, with A89R, N674Q counted along it
# T7 sequence (P27487 37-766 N710D): as the sequence (P27487 37-766 R125A) above, with A89R, N674D counted along it
Molecule,kcat (DP4 variant R125A [10]) [s⁻¹],kcat (DP4 variant R125K [13]) [s⁻¹],kcat (wild type DP4 [14]) [s⁻¹],Hydrolysis of peptide hormone in comparison to the DP4 wild type enzyme (DP4 variant R125K [17]),Hydrolysis of peptide hormone in comparison to the DP4 wild type enzyme (wild type DP4 [18]),Hydrolysis of peptide hormone in comparison to the DP4 wild type enzyme (DP4 variant N710Q [19]),Hydrolysis of peptide hormone in comparison to the DP4 wild type enzyme (DP4 variant E206A [21]),Hydrolysis of peptide hormone in comparison to the DP4 wild type enzyme (DP4 variant N710A [22]),Hydrolysis of peptide hormone in comparison to the DP4 wild type enzyme (DP4 variant N710D [23]),Hydrolysis of peptide hormone in comparison to the DP4 wild type enzyme (DP4 variant E205A [24]),also measured
"CC[C@H](C)[C@H](NC(=O)[C@@H]1CCCN1C(=O)[C@@H](N)C(C)(C)C)C(N)=O [t-Bu-Gly-Pro-Ile-NH2, t-Butyl-Gly-Pro-Ile-NH2] (H-[Tle]-Pro-Ile-NH2)",,,,,,,,,,,IC50 (DP4 variant N710Q [1]): > 10 mM; IC50 (DP4 variant R125A [2]): 80 µM; IC50 (DP4 variant E206A [3]): > 10 mM; IC50 (DP4 variant N710A [4]): 140 µM; IC50 (DP4 variant R125K [5]): 53 µM; IC50 (wild type DP4 [6]): 6.7 µM; IC50 (DP4 variant N710D [7]): 400 µM; IC50 (DP4 variant E205A [8]): 1300 µM
"NP Y: physiological DP4 substrate, peptide hormone, proline in P1 position (H2N-Y-P-S…)",23 ± 0.9,32 ± 0.5,37 ± 2.7,+++,+++,,,,,,Km (DP4 variant N710Q [9]): 510 µM; kcat (DP4 variant N710Q [9]): 2.0 ± 0.32 s⁻¹; Km (DP4 variant R125A [10]): 150 µM; Km (DP4 variant E206A [11]): 98 µM; Km (DP4 variant N710A [12]): 83 µM; kcat (DP4 variant N710A [12]): 1.8 ± 0.08 s⁻¹; Km (DP4 variant R125K [13]): 52 µM; Km (wild type DP4 [14]): 13 µM; Km (DP4 variant N710D [15]): 190 µM; kcat (DP4 variant N710D [15]): 12 ± 0.9 s⁻¹; Km (DP4 variant E205A [16]): 180 µM; kcat (DP4 variant E205A [16]): 11 ± 0.7 s⁻¹
"PACAP38: physiological DP4 substrate, peptide hormone, serine in P1 position (H2N-H-S-Q…)",,,,"- (hydrolysis below 0,01% of the wild type enzyme)",+++,"- (hydrolysis below 0,01% of the wild type enzyme)","- (hydrolysis below 0,01% of the wild type enzyme)","- (hydrolysis below 0,01% of the wild type enzyme)","- (hydrolysis below 0,01% of the wild type enzyme)","- (hydrolysis below 0,01% of the wild type enzyme)","Hydrolysis of peptide hormone in comparison to the DP4 wild type enzyme (DP4 variant R125A [20]): - (hydrolysis below 0,01% of the wild type enzyme)"
glucose-dependent insulinotropic peptide [GIP],0.16 ± 0.08,0.88 ± 0.08,3.9 ± 0.2,,+++,"- (hydrolysis below 0,01% of the wild type enzyme)","- (hydrolysis below 0,01% of the wild type enzyme)","- (hydrolysis below 0,01% of the wild type enzyme)","- (hydrolysis below 0,01% of the wild type enzyme)","- (hydrolysis below 0,01% of the wild type enzyme)",
